Blank lines part the entries; values can stand above or below the binder they belong to.
Columns and labels:
Bee1p-HA (S. cerevisiae) = assay: co-IP
[1] = target: Bee1p (1-165) (S. cerevisiae); assay: two-hybrid
[2] = target: Bee1p (1-633) (S. cerevisiae); assay: two-hybrid

percent coimmunoprecipitated (Bee1p-HA (S. cerevisiae)): 5%
B1: Vrp1p-Myc (natural protein)
chain: MAGAPAPPPPPPPPALGGSAPKPAKSVMQGRDALLGDIRKGMKLKKAETNDRSAPIVGGGVVSSASGSSGTVSSKGPSMSAPPIPGMGAPQLGDILAGGIPKLKHINNNASTKPSPSASAPPIPGAVPSVAAPPIPNAPLSPAPAVPSIPSSSAPPIPDIPSSAAPPIPIVPSSPAPPLPLSGASAPKVPQNRPHMPSVRPAHRSHQRKSSNISLPSVSAPPLPSASLPTHVSNPPQAPPPPPTPTIGLDSKNIKPTDNAVSPPSSEVPAGGLPFLAEINARRSERGAVEGVSSTKIQTENHKSPSQPPLPSSAPPIPTSHAPPLPPTAPPPPSLPNVTSAPKKATSAPAPPPPPLPAAMSSASTNSVKATPVPPTLAPPLPNTTSVPPNKASSMPAPPPPPPPPPGAFSTSSALSASSIPLAPLPPPPPPSVATSVPSAPPPPPTLTTNKPSASSKQSKISSSSSSSAVTPGGPLPFLAEIQKKRDDRFVVGGDTGYTTQDKQEDVIGSSKDDNVRPSPISPSINPPKQSSQNGMSFLDEIESKLHKQTSSNAFNAPPPHTDAMAPPLPPSAPPPPITSLPTPTASGDDHTNDKSETVLGMKKAKAPALPGHVPPPPVPPVLSDDSKNNVPAASLLHDVLPSSNLEKPPSPPVAAAPPLPTFSAPSLPQQSVSTSIPSPPPVAPTLSVRTETESISKNPTKSPPPPPSPSTMDTGTSNSPSKNLKQRLFSTGGSTLQHKHNTHTNQPDVDVGRYTIGGSNSIVGAKSGNERIVIDDSRFKWTNVSQMPKPRPFQNKTKLYPSGKGSSVPLDLTLFT

LacZ expression (two-hybrid) [1]: 144 Miller units
LacZ expression (two-hybrid) [2]: 144 Miller units
B2: Vrp1p (195-817) (domain or fragment)
chain: HMPSVRPAHRSHQRKSSNISLPSVSAPPLPSASLPTHVSNPPQAPPPPPTPTIGLDSKNIKPTDNAVSPPSSEVPAGGLPFLAEINARRSERGAVEGVSSTKIQTENHKSPSQPPLPSSAPPIPTSHAPPLPPTAPPPPSLPNVTSAPKKATSAPAPPPPPLPAAMSSASTNSVKATPVPPTLAPPLPNTTSVPPNKASSMPAPPPPPPPPPGAFSTSSALSASSIPLAPLPPPPPPSVATSVPSAPPPPPTLTTNKPSASSKQSKISSSSSSSAVTPGGPLPFLAEIQKKRDDRFVVGGDTGYTTQDKQEDVIGSSKDDNVRPSPISPSINPPKQSSQNGMSFLDEIESKLHKQTSSNAFNAPPPHTDAMAPPLPPSAPPPPITSLPTPTASGDDHTNDKSETVLGMKKAKAPALPGHVPPPPVPPVLSDDSKNNVPAASLLHDVLPSSNLEKPPSPPVAAAPPLPTFSAPSLPQQSVSTSIPSPPPVAPTLSVRTETESISKNPTKSPPPPPSPSTMDTGTSNSPSKNLKQRLFSTGGSTLQHKHNTHTNQPDVDVGRYTIGGSNSIVGAKSGNERIVIDDSRFKWTNVSQMPKPRPFQNKTKLYPSGKGSSVPLDLTLFT

LacZ expression (two-hybrid) [2]: 398 Miller units
B3: Myo5p-SH3-AD (1020-1219) (domain or fragment)
chain: NKAATRRSVPNPASTLTASQSNARPSPPTAATRATPAATPAAAAMGSGRQANIPPPPPPPPPSSKPKEPMFEAAYDFPGSGSPSELPLKKGDVIYITREEPSGWSLGKLLDGSKEGWVPTAYMKPHSGNNNIPTPPQNRDVPKPVLNSVQHDNTSANVIPAAAQASLGDGLANALAARANKMRLESDDEEANEDEEEDDW
